From patent US11447754B2, “In vitro methods of chemical conversion using non-stereospecific glutathione lyases” (WISCONSIN ALUMNI RESEARCH FOUNDATION, priority 2017, dated 2022)

Experiments:
Assay type in all cases: biochemical
[1] = Kinetics analysis of GS-HPV cleavage (conversion into HPV), β(R)-stereoisomer
Procedure: (§1) Kinetics analysis of GS-HPV cleavage. The Reaction Buffer (RB) consisted of 25 mM Tris-HCl (pH 8.5) and 25 mM NaCl. The β(R)- and β(S)-stereoisomers of GS-HPV were separately generated by incubating racemic MPHPV (0.46 mM) in RB with 5 mM reduced glutathione (GSH) and either 38 μg/mL LigF1 or 36 μg/mL LigE, respectively, for several h. This sample, containing a single GS-HPV stereoisomer, guaiacol, and the unreacted MPHPV stereoisomer, was diluted with RB to achieve the desired concentration of GS-HPV for the time course reaction (0.005, 0.011, 0.022, 0.096, or 0.193 mM). An additional 5 mM GSH (dissolved in RB) was added prior to initiation of each time course. […] Assays were performed at 25° C., and at specified time points, 300 μL of the reaction was removed and combined with 100 μL 1 M HCl (Acros Organics; Geel, Belgium) to stop the reaction before HPLC analysis to quantify HPV formed.
(§2) HPLC analysis. After extracellular aromatics were identified using LC-MS, routine analysis and quantification of aromatics were performed using an Ultra AQ C18 5 μm column (Restek, Bellefonte, Pa.) attached to a System Gold HPLC (Beckman Coulter, Brea, Calif.) with running buffers and chromatography conditions described in FIG. 14. […]

[2] = Kinetics analysis of GS-HPV cleavage (conversion into HPV), β(S)-stereoisomer
Procedure: as §1, §2

[3] = Assays to determine activities and stereospecificities of Saro_2872 and Saro_2873
Procedure: Cell-free protein synthesis. Cell-free protein synthesis was run essentially as previously described (Makino et al. 2014). The Saro_2872 polypeptide contained a His6-tag and a Tev protease recognition site on its N-terminus that were not removed. The Saro_2873 polypeptide was synthesized in its native form. Synthesized polypeptides were not purified from the synthesis reaction mixture; assays for enzymatic activity were performed by adding aliquots directly from the synthesis reaction. Concentrations of the Saro_2872 and Saro_2873 polypeptides in the reaction mixtures were approximated using the intensities of the bands in an SDS-PAGE gel.
0.1 mM racemic (β(S) and β(R)) MPHPV was combined with 5.8 mM glutathione (GSH) in reaction buffer (RB; 25 mM Tris-HCl (pH 8.0) and 25 mM NaCl). […] These 212 μL reactions were incubated at 30° C. for several hours, then analyzed via HPLC.
(§3) HPLC analysis. Analysis and quantification of aromatic compounds were performed using an Ultra AQ C18 5 μm column (Restek) attached to a System Gold HPLC (Beckman Coulter) with running buffers and methods described in Example 1. The eluent was analyzed for light absorbance between 191 and 600 nm, and absorbances at 280 nm were used for quantification of aromatic metabolites by comparing peak areas to those of standards.

[4] = Kinetics of the enzymatic cleavage of β(R)-MPHPV into GS-HPV
Procedure: Kinetics of the enzymatic cleavage of β(R)-MPHPV. Various concentrations of racemic MPHPV (equal amounts of the β(S)- and β(R)-stereoisomers) were combined with 5 mM GSH in RB. At time zero, 100 μL of a given enzyme in RB+5 mM GSH was combined with 1000 μL of the racemic MPHPV/GSH sample at 25° C. (both samples were equilibrated to 25° C. before mixing). Final concentrations of β(R)-MPHPV in each reaction were 0.0045, 0.010, 0.017, 0.068, or 0.13 mM. Final enzyme concentrations were 18 nM BaeA, 23 nM BaeA (2:S14A), 22 nM BaeA (3:S15A), 24 nM BaeA (2:S14A/3:S15A), 98 nM BaeA (3N14A), or 70 nM LigE (Saro_2405) (all concentrations are for the dimeric enzyme, except for LigE, which is the concentration of the monomer). At specified time points, 200 μL of a reaction was removed and combined with 40 μL of 1 M HCl (Acros Organics) to stop the reaction before HPLC analysis to quantify GS-HPV formed. Control experiments were allowed to proceed for several hours to ensure that only the β(R)-MPHPV in the reaction mixtures was being reacted with in these experiments.
as §3

B1: NaGSTNu: Nu-class glutathione S-transferase from Novosphingobium aromaticivorans DSM 12444 (Saro_2595), SEQ ID NO:18; non-stereospecific glutathione lyase (protein)
chain: MSSEYVPPKVWKWDKANGGAFASVNRPVAGPTSERELPVGKHPFQVYSLGTPNGQKATIMLEELLQLGFSEAEYDAWLIKIFEGDQFTSGFVDINPNSKIPAMVDRSGPEPFRVFESGAILMHLAEKFGVFLPTSGPARAECLSWLFWQVGSAPFIGGGFGHFYNYAPIKIEYAIDRYAMETKRLFDVANRRLAESRYLAGDEYTIADLATYTWFGNIYRGEAYGEAATFLSMHEYEHVGRWVGEIDARPGVLRGRLVNSSKGLAERHDASDFDALPPESLQAIVKGF
modifications: Novosphingobium aromaticivorans
notes: non-stereospecific glutathione lyase
With B1 as the molecule, how does the “KM with β(R)-GS-HPV, fold higher than with β(S)-GS-HPV” value [1] read?
Its value is ~5 fold.

And the “kcat/KM with the β(S)-isomer, fold higher than with the β(R)-isomer” value [2]?
The value was ~4 fold.

B2: BaeA: heterodimeric β-aryl etherase of Saro_2872 (SEQ ID NO:40) and Saro_2873 (SEQ ID NO:42) from Novosphingobium aromaticivorans (protein)
chain 1: MSALLYHGEPNGASLTVLAALAETGLDIECRRIDLLAGERHSLPGIVDPVALDLSIEGEGPVLVIDGEAMTESVFLAQYLDEAAGGVGLQPTDAYARWEMMMWCRQITERLSPAAALLGNLATSQSAIAAIPAEDFAILAARIVSDDLRERWQALNDDAVNAAQVADSETKVAAAVDRCEKQLGDGREWLMGTFSIADLVTYSWLAGMEPLRPAAFADAPLVKAWLARTAARPCVQAALARATISEPLRAWAPGPEINRWG
chain 2: MDEVSLYHWEPNANSGKPMLALMEKGVPFSSHYIDMLQFDQHKPEYLAINPQGTIPAMTHNGQVLTESTAIMEYVNDRFDGPDLMPADAQDRWRVRWWMKFMDQWLGPSFSMIGWSVFVGPMVRQRDPAELAAAIDRIPLPERRTAWRKAINGDFSESEMAESRRRVGLGIAKLEEELGKRPYVGSNQYSLADINIFNSTYSLPISQPDLAGKDRTPNIMRWLKRVYTREAVKKTWAMGKTDLAHRYGLIMAEIEG
modifications: Novosphingobium aromaticivorans
With B2 as the molecule, how does the “conversion of racemic MPHPV into GS-HPV and guaiacol” value ([3]; both polypeptides combined, ~24 nM each, 30° C.) read?
Its value is “half of the MPHPV was converted”.

And the “reaction with β(S)-MPHPV” value ([3]; recombinantly generated Saro_2872-Saro_2873 complex)?
Its value is “did not react”.

B3: BaeA (3:N14A): BaeA variant with Asn14 of Saro_2873 mutated into Ala (protein)
chain: MDEVSLYHWEPNAASGKPMLALMEKGVPFSSHYIDMLQFDQHKPEYLAINPQGTIPAMTHNGQVLTESTAIMEYVNDRFDGPDLMPADAQDRWRVRWWMKFMDQWLGPSFSMIGWSVFVGPMVRQRDPAELAAAIDRIPLPERRTAWRKAINGDFSESEMAESRRRVGLGIAKLEEELGKRPYVGSNQYSLADINIFNSTYSLPISQPDLAGKDRTPNIMRWLKRVYTREAVKKTWAMGKTDLAHRYGLIMAEIEG
For B3, which “KM, fold higher than wild-type BaeA” value ([4]; β(R)-MPHPV) is on record?
Its value is ~12.5 fold.

What about the “kcat, fold lower than (wild-type) BaeA” value ([4]; β(R)-MPHPV) of the same molecule?
The value was ~20 fold.

B4: Saro_2872: polypeptide from Novosphingobium aromaticivorans, SEQ ID NO:40; subunit of BaeA (protein)
chain: MSALLYHGEPNGASLTVLAALAETGLDIECRRIDLLAGERHSLPGIVDPVALDLSIEGEGPVLVIDGEAMTESVFLAQYLDEAAGGVGLQPTDAYARWEMMMWCRQITERLSPAAALLGNLATSQSAIAAIPAEDFAILAARIVSDDLRERWQALNDDAVNAAQVADSETKVAAAVDRCEKQLGDGREWLMGTFSIADLVTYSWLAGMEPLRPAAFADAPLVKAWLARTAARPCVQAALARATISEPLRAWAPGPEINRWG
modifications: Novosphingobium aromaticivorans
notes: subunit of BaeA
With B4 as the molecule, how does the “activity of the Saro_2872 subunit in BaeA relative to the Saro_2873 subunit” value ([4]; inferred from the 3:N14A variant) read?
Its value is < 5%.

B5: SYK6GSTNu: Nu-class GST from Sphingobium sp. SYK-6 encoded by SLG_04120, SEQ ID NO:22 (protein)
chain: MADSDPSMNQPTGYVPPKVWTWDKENGGQFSNINAPTAGARQDVTLPVGEHPIQLYSLGTPNGQKVTIMLEELLAAGFDAEYDAWLIKIYTGEQFGSDFVAINPNSKIPAMMDHGLDPPLRLFESGSMLVYLAEKFGAFLPTEIRKRTETFNWLMWQMGSAPFVGGGFGHFYAYAPFKIEYAIDRYAMETKRQLDVLDKNLADREFMIGDEITIADFAIFPWYGSIMRGGYNAQEFLSTHEYRNVDRWVTQLSERTGVKRGLLVNSAGRPGGGIAERHSAADLDASIKAAEQEAAKTEA
modifications: Sphingobium sp. SYK-6
Which “kcat/KM with the β(S)-isomer, fold higher than with the β(R)-isomer” value [2] does the source give for B5 here?
The value was ~10 fold.
